± gives the standard error. This sample holds only a part of the variants without activity.
B1: glmS ribozyme (parent)
chain: AUAAAAGCGCCAGAACUACAGAAAUGUAGUUGACGAGGAGGAGGUUUAUCGAAUUUUCGGCGGAUGCCUCCAAA

Variants of: B1
Experiment: self-cleavage kobs at 2500 uM GlcN6P; higher = faster cleavage; RNA array
Settings: with glucosamine-6-phosphate
In short: (§1)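 Glucosamine-6-phosphate (40 μM to 10 mM) in HEPES/KCl/Mg(OAc)2 buffer was flowed over sequenced MiSeq chips, and tiles were imaged over ~14 h. Barcoded ribozyme variants there had been transcribed in situ by E. coli RNA polymerase and were tracked through a hybridised Cy3 probe at 37 °C. One- or two-exponential decay fits to per-tile medians, normalised to baseline and to non-cleaving reference variants, gave kobs. kcat and KM came from weighted Michaelis–Menten fits across concentrations.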
In the case of AUAAAAGCGCCAGAACUACAGAAAUGUAGUUGAUGAGGAGGAGGUUUAUCGAAUUUUCGACGGAUGCUUCCAAA, the “self-cleavage kobs at 2500 uM GlcN6P” value is reported as under 1e-05 s⁻¹. In the case of AUAAAAGCGCCAGGACUACAGAAAUGUAAUUGACGAGGAGGAGAUUUAUCGAAUUUUCGGCGGAUGCCUCCAAA, the “self-cleavage kobs at 2500 uM GlcN6P” value is reported as 6.19e-05 ± 2.1e-05 s⁻¹. With AUAAAAGCGGCAGAACUACAGAAAUGUAGGUGACGAGGUGGAGCUUUCUCGAAUUUUCGGCGGAUGCCUCCAAA the “self-cleavage kobs at 2500 uM GlcN6P” value was under 1e-05 s⁻¹. In the case of AUAAAAGCGGCAGAACUACAGAAAUGUAGUUGACGAGGAGGAAGUUUAUCGGCUUUUCGGCGGAUGCCUUCAAA, the “self-cleavage kobs at 2500 uM GlcN6P” value is reported as under 1e-05 s⁻¹. With AUAAAAGCGCCAGAACUACAGAAAUGUAGUUGACGAGGAGUAGGUUUAUCGAAUUUGCGGCGGAUGCCUACAAA the “self-cleavage kobs at 2500 uM GlcN6P” value was 0.000107 ± 1.9e-05 s⁻¹. AUAAAAGCGCCAGUACUACAGAAAUGUAGUUGACGAGGAGGAGGGUUAUCGAAUUUUCGUCGGAUGCCUCCAAA was tested, and the “self-cleavage kobs at 2500 uM GlcN6P” value was under 1e-05 s⁻¹. With AUAAAAGUGCUAGAACUACAGAAAUGUAGUUGACGAGGCGGAGGUUUAUCAAAUUUUCGGCCGAUGCCUCCAAA the “self-cleavage kobs at 2500 uM GlcN6P” value was under 1e-05 s⁻¹. AUAAAAGCGCCAGAACUACAGAAAUGUAGUUGACGAGGAGGAGGAUUAUCGUAUUUUCGGCGGAUGACUCCAAA was tested, and the “self-cleavage kobs at 2500 uM GlcN6P” value was 8.33e-05 ± 2.5e-05 s⁻¹. For AUAAAAGCGCCGGAUCUACAGAAAUGUAGUUGACGAGGAGGAGGUUUAUCGAAUUUUCGGCGGAUGCCUCGAAA, the “self-cleavage kobs at 2500 uM GlcN6P” value was 2.52e-05 ± 1.1e-05 s⁻¹. With AUAAAAGCGACAGAACUACAGAAAUGUAGUUGACGAGGAGGAGGUUUAUCGAAUUUUCGGCCGAUGCAUCCAAA the “self-cleavage kobs at 2500 uM GlcN6P” value was 0.00024 ± 0.00011 s⁻¹. In the case of AUAAAGGCGCCAGAACUACAGAAAUGUAGUUGACGAGGACGUGGUUUAUCGAAUUUUCGGCGGAUGCCUCCAAA, the “self-cleavage kobs at 2500 uM GlcN6P” value is reported as under 1e-05 s⁻¹. In the case of AUAAACGCGCCAGAUCUACAGAAAUGUAGUUGACAAGGAUGAGGUUUAUCGAAUUUUCGGCGGAUGCCUCCAAA, the “self-cleavage kobs at 2500 uM GlcN6P” value is reported as under 1e-05 s⁻¹. For AUAAAAGCGCCAGAACUACAGAAAUGUAGUUGACGAGGAGAAGGUUUAUCGAAUUUUCGGCGGAUGCCUACAAA, the “self-cleavage kobs at 2500 uM GlcN6P” value was 0.000253 ± 5.4e-05 s⁻¹. With AUAAAAGCGCCAGAACUACAGAAAUGUAGUUGACGAGGAUGAUGUUUAUGGAAUUUUCGGCGGAUGCCUCCAAA the “self-cleavage kobs at 2500 uM GlcN6P” value was under 1e-05 s⁻¹. In the case of AUAAAAGCGCCAGAACUACAGAAAUGUAGUUGACGACGAGGAGGUUUAUUGAAUUUUCGGCGGAUGCCGCCAAA, the “self-cleavage kobs at 2500 uM GlcN6P” value is reported as 6.01e-05 ± 2.6e-05 s⁻¹. With AUAAAAGCGCCAGAACUACAGAAAUGUAGUUGACGAGGAGGAGGUUUAACAAAUUUUCGGCUGAUGCCUCCAAA the “self-cleavage kobs at 2500 uM GlcN6P” value was under 1e-05 s⁻¹. AUAAAAGCGCUAGACCUACAGAAAUGUAGUUGACGAGGAGGAGGUUUGUCGAAUAUUCGGCGGAUGCCUCCAAA was tested, and the “self-cleavage kobs at 2500 uM GlcN6P” value was under 1e-05 s⁻¹. With AUAAAAGCGUCAGAACUACAGAAAUGUAGUUGACCAGAAGGAGGUUUAUCGCAUUUUCGGCUGAUGCCUCCAAA the “self-cleavage kobs at 2500 uM GlcN6P” value was under 1e-05 s⁻¹. For AUAAAAGCGCCAGAACUACAGAAAUGUAAUUGACGAGGAGGAGGUUUUUCGAUUUUUAUGCGGAUGCCUCCAAA, the “self-cleavage kobs at 2500 uM GlcN6P” value was under 1e-05 s⁻¹. AUAAACGCGCCAGAACUACAGAAAUGUAGUUGACGAGGACGAGGUUUAUCGAAUUUUCGGUGGAUGCCUCCAAA was tested, and the “self-cleavage kobs at 2500 uM GlcN6P” value was under 1e-05 s⁻¹. AUAAAAGCGCCAGAACUACAGAAAUGUAGUUGACGAGGAGGAGGUUCAUCGAAUUUUAGGCGGAUGCUUCCAAA was tested, and the “self-cleavage kobs at 2500 uM GlcN6P” value was 3.93e-05 ± 1.6e-05 s⁻¹. AUAAAAGCGCCAGAACUACAGAAAUGUAAUAGACGAGCAGGAGGUUUAUCGAAUUUUCGGCGGAUGCCUCCAAA was tested, and the “self-cleavage kobs at 2500 uM GlcN6P” value was under 1e-05 s⁻¹. In the case of AUAAAAGCGCCAGAACUACAGAAAUGUAGUGGACGAGGAGGAGGUUUAUCGAAUUUUAGGCGGAUGGCUCCAAA, the “self-cleavage kobs at 2500 uM GlcN6P” value is reported as 6.38e-05 ± 2e-05 s⁻¹. In the case of AUAAAAGCGCCAGAACUACAGAAAUGUAGUUGACGGGGAUGAGGGUUAUCGAAUUUUCGGCGGAUGCCUCCAAA, the “self-cleavage kobs at 2500 uM GlcN6P” value is reported as under 1e-05 s⁻¹. AUAAAAGCGCUAGAAAUACAGAAAUGUAGUUGACGAGGAGGAGUUUUAUCGAAUUUUCGACGGAUGCCUCCAAA was tested, and the “self-cleavage kobs at 2500 uM GlcN6P” value was under 1e-05 s⁻¹. With AUAAAAGCGCCAGAACUACAGAAAUGUAGUUGACGAGGAGGAGGUUUAUCGACUGUUCGGCGGAUACCUCCAAA the “self-cleavage kobs at 2500 uM GlcN6P” value was 0.00165 ± 0.00032 s⁻¹. For AUAAAAGCGCCAGAACUACAGAAAUGUAGUUGACGAGGAGGAGAUUUAUCGUAUUUUCGUCGGAUGCCUCCAAA, the “self-cleavage kobs at 2500 uM GlcN6P” value was under 1e-05 s⁻¹. For AUAAAAGCGCCAGAACUACAGAAAUGUAGUUGGCGAGGAGGUGGUUUAUCGAAUUUUCGGCGGAUGCCUUCAAA, the “self-cleavage kobs at 2500 uM GlcN6P” value was under 1e-05 s⁻¹. With AUAAAAGCGCCAGAAAUACAGAAAUGUAGUUGCCGAGGAAGAGGUUUAUCGAAUUCUCGGCGGAUGUCUCCAAA the “self-cleavage kobs at 2500 uM GlcN6P” value was under 1e-05 s⁻¹. In the case of AUAAAAGCGCCAGAACUACAGAAAUGUAGUUGACGAGGCGGAGGUUUAUCGAUUUUUCGGCGGGUGCCUCCAAA, the “self-cleavage kobs at 2500 uM GlcN6P” value is reported as 0.00188 ± 0.00024 s⁻¹. With AUAAAAGCGCCAGUACUACAGAAAUGUAGUUGACGAGGACGAGGUUUAUCGAAUUUUCGGCGGAUCCCUCCAAA the “self-cleavage kobs at 2500 uM GlcN6P” value was 9.83e-05 ± 2.2e-05 s⁻¹. AUAAAAACGCCAGAACUACAGAAAUGUAGAUGACGAGGAGGAGGUUUAUCGAAUUUUCGCCGGAUGCCUCCAAA was tested, and the “self-cleavage kobs at 2500 uM GlcN6P” value was under 1e-05 s⁻¹. In the case of AUAAAAGCGCCAGUACUACAGAAAUGUAGUUGACGAGGAGGAGGGUAAUCGAACUUUCGGCUGAUGCCUCCAAA, the “self-cleavage kobs at 2500 uM GlcN6P” value is reported as under 1e-05 s⁻¹. In the case of AUAAAAGCGCCCGUACUACAGAAAUGUAGUCGACGAGGAGGAGGUUUAUCGAAUUGUCGGCGGAUGCCUCCAAA, the “self-cleavage kobs at 2500 uM GlcN6P” value is reported as 0.0134 ± 0.0063 s⁻¹.

Variants of: B1
Experiment: self-cleavage kobs at 10000 uM GlcN6P; higher = faster cleavage; RNA array
Settings: with glucosamine-6-phosphate
In short: as §1
In the case of AUAAAAGCGCCAGAACUACAGAAAUGUAGUUGACGAGGAGAAGGUUUAUCGAAUUUUCGGCGGAUGCCUACAAA, the “self-cleavage kobs at 10000 uM GlcN6P” value is reported as 0.00019 ± 2.6e-05 s⁻¹. With AUAAAAGCGCCAGUACUACAGAAAUGUAGUUGACGAGGACGAGGUUUAUCGAAUUUUCGGCGGAUCCCUCCAAA the “self-cleavage kobs at 10000 uM GlcN6P” value was 0.00012 ± 2.4e-05 s⁻¹. AUAAAAACGCCAGAACUACAGAAAUGUAGAUGACGAGGAGGAGGUUUAUCGAAUUUUCGCCGGAUGCCUCCAAA was tested, and the “self-cleavage kobs at 10000 uM GlcN6P” value was under 1e-05 s⁻¹.

— the supplement of paper PMC7125110
